Key:
[1] = target: T1, RBD of the S protein of the 2019 original strain (2019-nCoV) (SARS-CoV-2 (2019-nCoV original strain), UniProt P0DTC2 319-541); test: ELISA on plate-coated RBD (1 µg/mL), HRP anti-human Fc detection, OD450
T1 construct: domain: RBD; also called 2019-nCoV RBD; SARS-CoV-2 RBD

[2] = target: T2, S protein of the SARS-CoV-2 prototype strain on pseudo-virus (SARS-CoV-2 prototype strain, UniProt P0DTC2 14-1273); test: cell-based or functional assay
[3] = target: T2, S protein of the SARS-CoV-2 prototype …; test: cell-based or functional assay; remark: listed apart in the source

Row | Binder | EC50 [1] [nM] | Neutralization activity (IC50) against pseudo-virus [2] [ng/mL] | Neutralization Effects (IC50) against SARS-CoV-2 pseudo-viruses [3] [ng/mL]
1 | monoclonal antibody L4.65 (antibody, V domains shown, also called monoclonal antibody 65; 65IgG) VH: QITLKESGPTLVKPTQTLTLTCTFSGFSLSTSGVGVAWIRQPPGKALEWLALIYWDNDKRSSPSLNNRLTITKDTSKNQVVLTMTNMDPEDTATYYCAHFFSHYDSSNYYYGSWFDPWGQGTLVTVSS VL: EIVLTQSPGTLSLSPGERATLSCRASQSFDSRYLGWYQQKSGQAPRLLIYGASSRATGIPDRFSGSGSGTDFTLTISRLEPEDFAVYYCQQFGDSPFTFGQGTKLEIKR | 0.0173 | 0.97 | 0.709
2 | monoclonal antibody CoV56 (antibody, V domains shown, also called monoclonal antibody 56; 56IgG) VH: EVQLVESGGGVVQPGGSLRLSCAVSGFTFDDYAMHWVRQAPGKGLDWVSLISGDGSYTYYADSVKGRFTISRDSSKNSLYLQMNSLRTEDTALYYCAKAQTPTLWWLQDAFDIWGQGTMVTVSS VL: not shown | 0.0418 | > 2000 | 8380
